# T1: 重组人AXL蛋白 (recombinant human AXL protein) (human, UniProt P30530 26-449, limits assumed)
# T1 construct: also called 重组人AXL截短蛋白; 人受体酪氨酸激酶AXL
# T1 sequence (looked up): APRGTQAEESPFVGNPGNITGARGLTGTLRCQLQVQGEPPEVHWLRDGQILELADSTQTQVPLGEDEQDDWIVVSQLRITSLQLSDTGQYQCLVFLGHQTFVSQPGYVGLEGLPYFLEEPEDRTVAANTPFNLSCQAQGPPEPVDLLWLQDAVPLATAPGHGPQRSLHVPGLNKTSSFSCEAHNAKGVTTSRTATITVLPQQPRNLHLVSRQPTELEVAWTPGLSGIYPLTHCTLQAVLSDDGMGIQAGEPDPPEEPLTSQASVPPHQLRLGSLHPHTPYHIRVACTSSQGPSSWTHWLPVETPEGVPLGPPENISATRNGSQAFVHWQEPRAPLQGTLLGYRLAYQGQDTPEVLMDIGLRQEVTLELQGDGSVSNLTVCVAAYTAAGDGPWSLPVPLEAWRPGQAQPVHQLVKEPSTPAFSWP
# Target: T1, 重组人AXL蛋白 (recombinant human AXL protein)
# Assay: BLI (Gator biomolecular interaction analyser), antibody against recombinant human AXL
binder,measurement,value
"兔单克隆抗体A (rabbit monoclonal antibody A against human AXL) (antibody, V domains shown, also called 抗人AXL兔单克隆抗体A) VH: QSVEESGGRLVTPGTPLTLTCTVSGIDLSTYAMIWVRQAPGEGLEWIGTIYTDGATAYARWAKGRFTISKTSTTVDLKMTSLTTEDTATYFCARGFGISKFVFSLWGPGTLVTVSL VL: DIVMTQTPASVEAAVGDTVTIKCQASQNIYSNLAWYQQKPGQPPKLLIYFASNLPSGVPSRFKGSGSGTEYTLTISGVQCDDAATYYCQNYYINEIVFGGGTEVVVKG",Kd,0.555 nM
same,koff,0.000132 s⁻¹
same,kon,237000 M⁻¹ s⁻¹
"兔单克隆抗体B (rabbit monoclonal antibody B against human AXL) (antibody, V domains shown, also called 抗人AXL兔单克隆抗体B) VH: QEQLKESGGGLVQPGGSLKLSCKASGFSLSYYGVNWVRQAPGKGLEWIACIDPVFGATYYASWVNDRFTISSHNAQNTLYLQLSSLTPADTATYFCARGRYYRYGYTYATGMDIWGPGTLVTVSS VL: AIDMTQTPSSVSAAVGDTVTINCQASEDIYSFLAWYQQKPGHSPKLLIYDASKLASGVSSRFKGSGSGTQFTLTISGVQCDDAATYYCQQTYSVSNADTAFGGGTEVVVKG",Kd,1.14 nM
same,koff,0.000387 s⁻¹
same,kon,341000 M⁻¹ s⁻¹

# Source: CN116715774A (WUHAN ABCLONAL INC, dated 2023)
